Measurements from publication PMC4906023.

Target: His6-GyrB subunit of M. tuberculosis DNA gyrase (M. tuberculosis H37Rv) (UniProt P9WG45)
Assay: SPR; BIAcore T200; […], association 180 s, dissociation 600 s; HBS-N

B1: MParE2 without the His6-tag (natural protein)
chain: MTRRLRVHNGVEDDLFEAFSYYADAAPDQIDRLYNLFVDAVTKRIPQAPNAFAPLFKHYRHIYLRPFRYYVAYRTTDEAIDILAVRHGMENPNAVEAEISGRTFE
Kd: 4.75 µM
